Assays:
[1] = biological target: T1, Flag-4KR (complexed with RAD50) (UniProt P49959 1-708; Q92878 1-1312, K255R | K384R | K416R | K467R); experiment: pull-down; purified proteins incubated in T50 buffer (25 mM Tris-HCl pH 7.5, 10% glycerol, 0.5 mM EDTA, 50 mM KCl, 1 mM DTT, 0.01% Igepal) on ice for 2 h, pulled down by anti-Flag M2 beads; supernatant and eluate immunoblotted; details: both partners purified
T1 construct: MRE11 with the four lysine-to-arginine mutations (4KR); RAD50, His-tagged, as in the MRE11/RAD50 complex; also called MRE11 4KR mutant; SUMOylation-deficient MRE11; source: purified, complexed with RAD50; the host is told for the MRE11/RAD50 complex: yeast
T1 sequence (P49959 whole entry K255R/K384R/K416R/K467R, chain 1 of 2): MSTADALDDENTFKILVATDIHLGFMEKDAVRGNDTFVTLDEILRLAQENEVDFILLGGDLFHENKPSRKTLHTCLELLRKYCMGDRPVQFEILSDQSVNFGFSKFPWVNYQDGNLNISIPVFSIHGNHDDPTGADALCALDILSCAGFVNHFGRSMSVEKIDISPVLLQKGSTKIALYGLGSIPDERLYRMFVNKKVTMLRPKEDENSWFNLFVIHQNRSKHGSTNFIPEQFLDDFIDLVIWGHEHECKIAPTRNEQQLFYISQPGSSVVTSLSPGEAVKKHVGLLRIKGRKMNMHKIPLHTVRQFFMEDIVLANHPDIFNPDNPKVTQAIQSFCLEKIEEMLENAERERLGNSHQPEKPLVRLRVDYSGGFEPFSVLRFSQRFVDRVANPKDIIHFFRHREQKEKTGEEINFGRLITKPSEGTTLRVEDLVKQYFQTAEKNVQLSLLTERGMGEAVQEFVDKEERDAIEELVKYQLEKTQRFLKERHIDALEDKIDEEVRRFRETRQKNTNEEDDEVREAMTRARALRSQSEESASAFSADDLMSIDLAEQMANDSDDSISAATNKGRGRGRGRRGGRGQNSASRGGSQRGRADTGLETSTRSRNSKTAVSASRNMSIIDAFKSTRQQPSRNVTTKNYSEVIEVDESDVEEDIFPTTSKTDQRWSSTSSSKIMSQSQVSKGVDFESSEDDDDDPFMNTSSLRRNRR
T1 sequence (Q92878 whole entry, chain 2 of 2): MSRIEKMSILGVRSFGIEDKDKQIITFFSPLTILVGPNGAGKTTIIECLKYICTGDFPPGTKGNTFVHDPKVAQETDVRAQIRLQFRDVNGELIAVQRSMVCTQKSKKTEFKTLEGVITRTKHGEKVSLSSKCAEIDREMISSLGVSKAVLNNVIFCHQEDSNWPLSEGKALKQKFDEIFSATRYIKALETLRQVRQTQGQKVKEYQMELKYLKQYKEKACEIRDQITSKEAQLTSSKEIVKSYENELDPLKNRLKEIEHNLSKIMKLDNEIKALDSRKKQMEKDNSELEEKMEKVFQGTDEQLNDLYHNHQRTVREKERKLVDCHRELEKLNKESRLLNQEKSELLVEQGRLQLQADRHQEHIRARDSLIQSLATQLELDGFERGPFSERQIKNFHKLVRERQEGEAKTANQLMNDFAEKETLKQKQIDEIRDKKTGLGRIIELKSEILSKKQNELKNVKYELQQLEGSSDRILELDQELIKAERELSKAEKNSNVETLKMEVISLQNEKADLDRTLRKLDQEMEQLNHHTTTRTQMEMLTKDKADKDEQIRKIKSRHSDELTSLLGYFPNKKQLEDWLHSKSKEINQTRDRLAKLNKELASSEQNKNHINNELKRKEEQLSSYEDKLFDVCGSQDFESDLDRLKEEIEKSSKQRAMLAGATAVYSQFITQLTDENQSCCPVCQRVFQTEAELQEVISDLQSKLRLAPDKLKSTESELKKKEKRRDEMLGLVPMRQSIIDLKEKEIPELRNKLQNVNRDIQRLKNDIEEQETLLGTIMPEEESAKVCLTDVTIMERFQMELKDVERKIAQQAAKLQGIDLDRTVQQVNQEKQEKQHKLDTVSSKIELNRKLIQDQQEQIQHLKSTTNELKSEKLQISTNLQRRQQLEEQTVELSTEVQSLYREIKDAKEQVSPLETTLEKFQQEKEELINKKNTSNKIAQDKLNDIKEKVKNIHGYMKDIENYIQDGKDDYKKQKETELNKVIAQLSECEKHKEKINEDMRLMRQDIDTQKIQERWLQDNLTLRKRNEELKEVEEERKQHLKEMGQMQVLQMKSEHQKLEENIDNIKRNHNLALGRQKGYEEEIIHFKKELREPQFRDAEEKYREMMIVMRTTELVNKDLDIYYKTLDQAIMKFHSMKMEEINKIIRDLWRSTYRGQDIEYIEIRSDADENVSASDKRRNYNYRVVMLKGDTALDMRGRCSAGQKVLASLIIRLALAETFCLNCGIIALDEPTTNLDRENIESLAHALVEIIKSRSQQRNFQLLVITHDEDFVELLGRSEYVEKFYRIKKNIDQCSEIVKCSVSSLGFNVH

[2] = biological target: T2, Flag-WT-MRE11 (complexed with RAD50) (UniProt P49959 1-708; Q92878 1-1312); experiment: as above; details: both partners purified
T2 construct: MRE11, Flag-tagged, in the pESC-URA vector; RAD50, His-tagged, in the pESC-URA vector; The results call it Flag-MRE11; also called MRE11/RAD50 complex; Flag-MRE11; source: protease-deficient yeast strain, co-expressed, purified (Ni-NTA, anti-Flag M2 beads)
T2 sequence (P49959 whole entry, chain 1 of 2): as the sequence (P49959 whole entry K255R/K384R/K416R/K467R, chain 1 of 2) above, with R255K, R384K, R416K, R467K counted along it
T2 sequence (Q92878 whole entry, chain 2 of 2): as the sequence (Q92878 whole entry, chain 2 of 2) above

B1: MBP-NBS1 (natural protein, UniProt O60934 1-754, looked up)
chain: MWKLLPAAGPAGGEPYRLLTGVEYVVGRKNCAILIENDQSISRNHAVLTANFSVTNLSQTDEIPVLTLKDNSKYGTFVNEEKMQNGFSRTLKSGDGITFGVFGSKFRIEYEPLVACSSCLDVSGKTALNQAILQLGGFTVNNWTEECTHLVMVSVKVTIKTICALICGRPIVKPEYFTEFLKAVESKKQPPQIESFYPPLDEPSIGSKNVDLSGRQERKQIFKGKTFIFLNAKQHKKLSSAVVFGGGEARLITEENEEEHNFFLAPGTCVVDTGITNSQTLIPDCQKKWIQSIMDMLQRQGLRPIPEAEIGLAVIFMTTKNYCDPQGHPSTGLKTTTPGPSLSQGVSVDEKLMPSAPVNTTTYVADTESEQADTWDLSERPKEIKVSKMEQKFRMLSQDAPTVKESCKTSSNNNSMVSNTLAKMRIPNYQLSPTKLPSINKSKDRASQQQQTNSIRNYFQPSTKKRERDEENQEMSSCKSARIETSCSLLEQTQPATPSLWKNKEQHLSENEPVDTNSDNNLFTDTDLKSIVKNSASKSHAAEKLRSNKKREMDDVAIEDEVLEQLFKDTKPELEIDVKVQKQEEDVNVRKRPRMDIETNDTFSDEAVPESSKISQENEIGKKRELKEDSLWSAKEISNNDKLQDDSEMLPKKLLLTEFRSLVIKNSTSRNPSGINDDYGQLKNFKKFKKVTYPGAGKLPHIIGGSDLIAHHARKNTELEEWLRQEMEVQNQHAKEESLADDLFRYNPYLKRRR
notes: NBS1, MBP- and His-tagged, in the pFastBac vector; also called MBP- and His-tagged NBS1; source: High Five cells (baculovirus), purified (amylose beads, Ni-NTA)
B1: binds [1]; binds [2].
